Target: Bacillus anthracis ribonucleotide reductase subunit NrdF (Bacillus anthracis) (UniProt Q81TB4)
Test: crystal structure

“Bacillus anthracis ribonucleotide reductase subunit NrdF (from UniProt Q81TB4 1-322) (enzyme)” was tested. Which stoichiometry N did it give?
The stoichiometry N was 2.
